Source: PMC5173029

Biological target: Recombinant FIP-sch3 from Stachybotrys chartarum (Stachybotrys chartarum IBT 7711)
Experiment: SEC; Superdex 75 (10/300 GL) gel filtration in PBS (10 mM, pH 7.2) after the GST tag was removed; markers 66, 43, 29 and 17 kDa; calculated mass about 28.3 kDa against 14.1 kDa for the monomer

Recombinant FIP-sch3 from Stachybotrys chartarum (natural protein)
stoichiometry N: 2
